Assay: yeast display, Sf9 membrane polyspecificity reagent, FACS + sequencing; frameworks hold sequencing errors
Summary of the method: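 Nanobodies came from a synthetic yeast display library in Saccharomyces cerevisiae BJ5465, induced with galactose for 36–48 hours and stained for 1 hour at 4 °C with 10% biotinylated, detergent-solubilized Sf9 membrane reagent. Cells were enriched on streptavidin microbeads and then FACS-sorted, with low and high (top ~1%) gates set on anti-HA fluorescence for expression and streptavidin fluorescence for reagent binding. Each polyreactivity label reflects the gate a clone came from. Genes were amplified by colony PCR, sequenced by MiSeq 2 × 250 and filtered by CDR length.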

Row | Sequence | polyreactivity (PSR sort gate)
1 | QVQLVESGAGLVQAGGSLPLSCAASGSTFPKYAMGWYRQAPGKEREFVSAITSSGGRTFYADSVKGRFTISRDNAKNTVYLQMNSLKPEDTAVYYCAAYYYSWSGAFIYEYWGQGTQETVSS | high polyreactivity
2 | QVHLVESGGGLVQAGGSLRLSCAASGNTFYWYVMGWYRQAPGKERDLVARITSSGGSTNYADSVKGRFTISRDNAKNTVYLQMISLKPEDTAVYYCAADDIYLYGGGTDYYYWGQGTQVTVSS | low polyreactivity
3 | QVQLVESGGGLVQAGGSLRLSCAASGFIFAYNAMGWYRQAPGKERELVAAISWSGGSTYYADSVKGRFTISRDNAKNTVYLQMNSLKPEYTAVYYCNAKYLGRRWDGNYNYWGQGTQVTVSS | high polyreactivity
4 | QVQLVESGGGLVQAGGSLRLSCAASGRTFLWNALGWYRQAPGKESELVARINLSGGRTYYADSVKGRFTISRDNAKNCVYLQMNSLKPEDTAVYYCAATVVRYRRDSWGQGTQVTVSS | low polyreactivity
5 | QVQHVESGGGLVQAGGSLRLSCAATGRTFVYYAMGWYRQPPRKESELVASISSVGTTKYADSVKGRFTISRDNAKNTVYLQMNSLKPEDTAVYYCNNADDYSTVEFDYWGQGTQVTVSS | low polyreactivity
6 | QVQLLDSGGGLVQAGGSLRLSCAASGFTFDDYDKGWYRPPPGKERELVAAISWSGGSTYYADSVKGRFTISRDNAKNTVYLQMNSLKPEDTAVYYCAAERSYGGFDYWGQGTQVTVSS | low polyreactivity
7 | QVQLVESGGGLVQAGGSLRLSCAASGSTFYWYAMGWYIQAPGKERELGAAIRWSGDRTYYADSVKGLFTISRDNAKNTVYLQMNSLKPEDTAVYYCAAGKGRPVGGRAYYYWGQGTQVTVSS | high polyreactivity
8 | QVQLVESGGGLVQAGGSLRLSCAASGRIFSGNGMGWYRQATGKERELVASITWSGTSTYYADSVKGGFTISRDNAKNTVYLQMNSLKPEDTAVYYCNTRTSRRIWYSKSGKRYDYWGQGTQVTVSS | high polyreactivity
9 | QVQLVESGGGLVQAGGSLRLSCDASGSIISYYTMGWYRQAPWKERELVAAISLTGGSTYYADSVKGRFTISRDNAKNTVYLQMNSLKPEDTAVYYCIAVRYASPYGYWGQGTLVTVSS | high polyreactivity
10 | QVQLVESGGGLVQAGGSLRLSCAASGRIFRGYAMGWYRQAPGKERELVAAITRGGSTKYADSVKGRFTISRDNAKNTVYLQMNSLKPEDTAVYYCAKDSYPYVPLYRSRSLYGYWGQGTQVTVSS | high polyreactivity
11 | QVQLVESGGALLQAGGSLRLSCAASGRIFYHYAMGWYRQAPGKESELVAASTWSGVSTYYADSVKGRFTISRDNAKNTVDLQMNRLIPADTAVYYCATSSPYGVRRYSRGSWGQGTQVTVSS | high polyreactivity
12 | QVQLVESGGGLDQAGGSLRLSCAASGSTFSFYAMGWYRQAPGKERELVAAISRSGGCKFYADYVKGRFSISRDNEKNTVYLQMNRLKPEDTAVYYCAAKSAVVVGMDSWGQGTQVTVSS | high polyreactivity
13 | QVQLVESGGVLVQAGGSLRLSCAATGRIKDNVMGWYRQAPGKERELVAAITRSARRTYYADSVTGRFTISRDNAKNTVYLQMNSLKPEDTAVYYCAAQAERYGFEYWGQGTQVTVSS | low polyreactivity
14 | QVQLVESGGGLVQAGGSLRLSCAASGITFLPYAMGWYRQAPGKERELVAAITRGGGSTYADSVKGRFTISRDNAKNSVYFQMISLKPEDTAVYYCAKLYGRGSWYEDYDYWGQGTQVTVSS | low polyreactivity
15 | QVQLVELGGGLVQAGGSLRLSCAASGRIFTHNAMGWYRQAPGKDRELVAAISYSGVSTYYADSVKGRFTISRDNAKNTVYLQMNSLKPEDTAVYYCARRYWYPDAFYRYDYWGQGTQVTVSS | low polyreactivity
16 | QVQLVESGGGLVQAGGSLRISCAASGRTFWKYAMGWYRQAPGKERELVAAITASGARTYYADSVKGRFTISRDNAKNTVYLQMNSLKPEDTAVYYCNAGSVSDRQMDYWGQGTQVTVSS | low polyreactivity
17 | QVQLVESGGGLVQAGGSLRLSCAASGRIFGYNAMGWYRQAPGKERELVAVITYSGGSTYYADSVKGRFTISRDNAKNTVYLQMNSMIPEDTAVYYCAADYQPYSYFWQGGTRDMDYWGQGTQVTVSS | low polyreactivity
18 | QVHLVESGGGLVQAGGSLRLSCAASGRTFRYYAMGWYRQAPGKERELVAAITGSGGRTYYADSVKGRFTISRDNAKNTVYLQMNTLKPEDTAVYYCNRDPDIYICYDYWGQGTQVTVSS | high polyreactivity
19 | QVQLVESGGGLVQAGGSLRLSCAASGRTFQWYTMGWYRQAPGKERELVAAISWSGTSTYYADSVKGRFTISRDIAKNTVYLQMNILNPEDTAVYYCAAEVIGRYYRLDYWGQGPQVTVSS | low polyreactivity
20 | QVQLVESGGGLVQAGGSLRLSCAASGFNSHFYAMGSYRQAPGKEREFVDRISYSGGSTYYADSVKGRFTISRDNAKNTVYLQMNSLKPEDTAVYFCAADKHYFRHFGSWGQGTQVTVSS | low polyreactivity
21 | QVQLVESGGGLVQAGGSLRLSCAASGRIYLTNAMGWYRQAPGKERELVAAITSGGSTYYADSVKGRFTISRDNAKNTVYLQMNSLKPEDTAVYYCNADTDRYWPYEYDYWGQGTQVTVSS | low polyreactivity
22 | QVQLVESGGGLVQAGGSLRLSCAASGRIFGWYAMGWYRQAPGKERELVAAINWDGTSTDYADSVKGRFTISRDNAKNTVYLQMNSLKPEDTAVYYCAAEGHTAFLVYRVSPLQYDYWGQGTQVTVSS | low polyreactivity

Row | Sequence | polyreactivity (PSR sort gate)
23 | QVQLVESGGGLVQAGGSLRLSCAASGRTFRRYNMGWYRQAPGKERELVAAITTSGGSTYYSDSVKGRFTISRDNAKNTVYLQMNSLIPEDTAVYYCAATRRYSGDYWGQGTQVSVSS | high polyreactivity
24 | QVQLQESAGALVQAGGSLRQSYAASGYIFPSLSMGRYRQAPGKEREFVAAIGRGSTNNYADSVKGRFTISRDNANNTAYQQMISLKPEDTAVYYCAAAASQLTRHLYWGQGTQVTVSS | low polyreactivity
25 | QVQLVESGGGLVQAGGSLRLSCAASGNIFDAYGMGWNRQAPGKETELVAAIDWTGGSTYYADSVKGRFTISRDNAKNTVYLQMNSLKPEDTAVYYCAADWGGGYQQYGNDWVNYWGQGTQVTVSS | low polyreactivity
26 | QVQLVESGGGLVQAGGSLRLSCAASGSIFGKYALGWYRQAPGIERELVAAISGRGGGTYYADSVKGRFTISRDNAKNTVYLQVNRLNPEDTGVYYCNAYYSRLRYDYWGQGTQVTVSS | high polyreactivity
27 | QVQLVESGGGLVQAGGSLRLSCAASGFTFFYNAMGRYRQAPGKEREFVAAISGRGGTTYYADSVKGRFTISRDNAKNTVYLEMNSLKPEDTAVYYCAARSVSTLRYTSCKLSDDYWGQGTQVTVSS | high polyreactivity
28 | QVQLVESGGGLVQAGGSLRLSCAASGRTFHPYAMGWYRQAPGKERELVAAITSIGGSTFYADSVKGRFTISRDNAKNNVYLQLTSLKPEDTAVYFCNAESSYYYGTAAYEYWGQGTQVSVSS | low polyreactivity
29 | QVQLVESGGGLVQAGGRLRLSCAASGSIFTPNAMGWYRQAPGKEMELVAAISSSSDRTYYADSVKGRFTISRDNAMITVYLQMNSLNPEDTAVYYCAAETNTWYLFDFWGQGTQVTVSS | high polyreactivity
30 | QVQLVESVGGLVEAGGSLRLSCAASGSILGGYAMGWYLQAPGKESELVAAITSSGGRTYYADCVKGRFTMSRDNAKNTVYLQMNSLKPEDTAVYYCAARYSRWRYNYKDYAYWGQGTQVTVSS | high polyreactivity
31 | QVQLVESGGGLGQAGGSLRLSCAASGSIFYRNARGWYRQAPGKERELVASITSGGRTNYADSVKGRFTISRDNAKYSVYLQMNSLKPEDTAVFYCARGRASYTTSGPTPYTGYGYWRQGTQVTVSS | low polyreactivity
32 | QVQLVESGGGLVQAGGSLRLSCAASGIIFNLYAMGWYRQAPGKERELVAAISWSGGSTYYADSVKGRFTISRDNAKNTVYLQMNSLKPEDTAVYYCATSFLYPYFDEDDYWGQGTQVTVSS | high polyreactivity
33 | QVQLVESGGGLVQAGGSLRLRCAASGGTFGVNAMGWYRQAPGKERELVAAISSSGGRTYYADSVKGRFTISRDNAKNTVYLQMNSLKPEDTAVYYCAARNYFWGQGTQVTVSS | low polyreactivity
34 | QVQHEESGGGLVQAGGSLRLSCAASGIIFYYYALGWYRQAPGKERELVAAITGTGSRTYYADSVKGRFTISRDNAKNTVYLQMNSLKPEDTAVYYCNARSFATGSKVPARGYWGHGTQVTVSS | high polyreactivity
35 | QVQLVESGGGLVQAGGSLRLSCAASGSTFWYYTMGSYRQAPGKERELVAAIRYSGTRTYYADSVKGRFTISRDNAKTTVYLQMNSLKPEDTAVYYCARYRTPGYQAYLYDYWGQGTQVTVSS | low polyreactivity
36 | QVQLVESGGGLVQAGGSLRISCAPSGIIFEYYALGCSRQAPGKEREVVAAIFSGGSTYYADSVKGRFTISRDNAKNTVYLLMNSLKAEDNAVYYCAAEYLAWGQGTQVTVSS | high polyreactivity
37 | QVQLVESGGGLVQAGGSLRLSSAASGSTFWNNVMGSYRQATGKERELVAAITYSGGITYADSVKGRFTISRDNAKNTVYLEMNSLKPEDTAVYYCAADSKYKYDSWGQGTQVTVSS | low polyreactivity
38 | QVQLVESGGCLDQAGGSLRLSCAASGRIFNSNTMGWYRQAPGKERELVAAITYSGGSTYYADSVKGRFTISRDNAKNTVYLQMNSLKPEDTAVYYCAADFWEYDGPWYANDYYSWGQGTQVTVSS | low polyreactivity
39 | QVQLVESGGGFVQAGGSLRLSCAASGSTFRFYAMGWYRQAPGKERELVAAINGSGGSTYYADSVKGRFTISRDNAKNTVYLQMNSLKPEDTAVYYCAAESNTGPGEDYWGQGTQVTVSS | low polyreactivity
40 | QVQLVESGGGLVQAGGSLRLSCAASGSTFTGNAMGWYRQAPGKERELVAAISRSGGRTYYADSVKGRFTISRDNAKNTVYLQMNILKPEDTGVYYCNAVRNRGQRTAFDYWGQGTQVTVSS | high polyreactivity
41 | QVPLVESGGGLVLAGGSLRLSCAASGSTVDDNAMGWYRQAPGKVRELVAGISTNGGSTSYADSVKGRITISRDNAKNTVYLQMNSRKPEHTAVYYSAKGLYVQFDYWGQGTQVTVSS | low polyreactivity
42 | QVQLVESGGGLVQAGGSLRLSCAASGSTFSRYAMGWYRQAPGKERELVAAISGSGGSTSYADSVKGRFTISRDNAKNTVYLQMNSLKPEDTAVYYCAAYYLWYSRAFDYWGQGTQVTVSS | high polyreactivity
43 | QVQLVESGGGLVQAGGSLRLSCAASGSISKINAMGWYRQAPWKERELVAAINTGDSTYYADSVKGRFTISRDNAKNTVYLLMNSLKPEDTAVYYCAAECSPTGYDYWGQGTQVTVSS | low polyreactivity

— the nanobody polyreactivity screen of Harvey et al. (2022)
